The test system of assay [1] is T helper clone TUC2.15. The assay is described as follows: IL-9 induced proliferation, thymidine incorporation. The format is cell-based. As to conditions: resting TUC2.15 cells, saturating IL-9, thymidine incorporation day 3. As for the experimental part: (§1) The correlation between IL-9 and proliferation of T4 cell lines in response to IL-9 was studied. Resting T cells were collected from two week cultures, and 2×10^6 cells were stimulated by antigen (KLH, 25 ug/ml) in the presence of 70×10^6 & spleen cells for four days. Blasts were isolated by centrifugation and IL-9 binding was determined following incubation with 7.5×10^-10 M labelled rIL-9. Resting cells which had not been restimulated were treated in parallel. Maximal IL-9 induced proliferation was measured by incubation of resting cells in microliter plates (50,000/well), either with or without saturating concentrations of IL-9. Radioactive thymidine incorporation, which was the manner in which proliferation was determined, was measured on day 3.

The test system of assay [2] is T helper clone TUC7.11. The assay is described as above. The format is cell-based. As to conditions: resting TUC7.11 cells, saturating IL-9, thymidine incorporation day 3. As for the experimental part:
as §1

Assay [3] has as its system T helper clone TUC7.33. The description is as above. Type of assay: cell-based. To be noted: resting TUC7.33 cells, saturating IL-9, thymidine incorporation day 3. The procedure: as §1
Assay [4] deals with T helper clone TUC7.51. The description is as above. The format is cell-based. To be noted: resting TUC7.51 cells, saturating IL-9, thymidine incorporation day 3. The procedure: as §1
(Dividing cells build labelled thymidine or BrdU into new DNA.)

Assay [5] has as its target T1, IL-9R (Mus musculus, UniProt Q01114).
T1 sequence (Q01114 38-468): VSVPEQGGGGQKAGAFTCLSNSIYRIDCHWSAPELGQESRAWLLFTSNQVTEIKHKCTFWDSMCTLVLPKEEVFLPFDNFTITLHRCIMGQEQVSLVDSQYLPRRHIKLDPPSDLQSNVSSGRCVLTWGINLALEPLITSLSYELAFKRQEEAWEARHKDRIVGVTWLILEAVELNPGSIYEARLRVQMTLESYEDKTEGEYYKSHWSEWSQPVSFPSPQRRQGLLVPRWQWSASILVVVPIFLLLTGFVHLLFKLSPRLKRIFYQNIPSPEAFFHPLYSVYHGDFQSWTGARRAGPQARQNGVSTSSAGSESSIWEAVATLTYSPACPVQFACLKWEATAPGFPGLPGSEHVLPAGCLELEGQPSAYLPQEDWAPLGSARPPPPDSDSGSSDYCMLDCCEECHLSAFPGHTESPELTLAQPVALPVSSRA
The assay is described as follows: IL-9 binding to resting and activated T helper clones. The arrangement: endogenous in cells. As to conditions: 7.5×10^-10 M labelled rIL-9. The procedure: as §1

Consider “IL-9: lymphokine interleukin-9, T-cell derived growth factor; in Tables II and III the 125I-labelled recombinant form is used”, for which the “IL-9 induced proliferation Stimulatin Index” value in assay [1] turned out to be 11.2; in assay [2] it was 1.1; in assay [3] it was 0.8; in assay [4], 23.8. The “IL-9 binding Activated Cells” value was 532 mol/cell in assay [5] (T helper clone TUC2.15, antigen (KLH) stimulated blasts); under 10 mol/cell in assay [5] (T helper clone TUC7.33, antigen (KLH) stimulated blasts); 514 mol/cell in assay [5] (T helper clone TUC7.51, antigen (KLH) stimulated blasts). Further, the “IL-9 binding Resting Cells” value in assay [5] (T helper clone TUC2.15) was 159 mol/cell; in assay [5] (T helper clone TUC7.11), under 10 mol/cell; in assay [5] (T helper clone TUC7.33), 21 mol/cell; in assay [5] (T helper clone TUC7.51) it was 94 mol/cell.

The values above are taken from patent US5180678A, “Uses of substantially pure interleukin-9 receptor” (Ludwig Institute for Cancer Research, priority 1992, dated 1993).
